Experimental data published in the supplement of paper PMC9170038.

System: MS2 coat protein
Assay: apparent KD of MS2 coat protein; designed switch direction (-1 OFF switch, 1 ON switch): -1; higher = weaker reporter binding
Outline: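 Normalised cluster fluorescence was curve-fitted, and each design's median over clusters is its apparent KD. Before this, SNAP-549-labelled MS2 coat protein was titrated from 0.7 or 1.5 nM, doubling to 3 µM, over RNA switches transcribed on Illumina chips by stalled E. coli RNA polymerase. Titrations had no input, 200 uM small-molecule ligand, or an oligonucleotide input, and steps lasted 0.8–1.5 h (lowest) to 10–20 min (highest).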

[1] = Eterna round: R95, input ligand: FMN 200 uM
[2] = Eterna round: R95, input ligand: microRNA oligo, concentration not stated
[3] = Eterna round: R95, input ligand: none
[4] = input ligand: microRNA oligo, concentration not stated

Row | Sequence | apparent KD of MS2 coat protein (input ligand: FMN 200 uM) | apparent KD of MS2 coat protein (input ligand: none) | apparent KD of MS2 coat protein [1] | apparent KD of MS2 coat protein [2] | apparent KD of MS2 coat protein [3] | apparent KD of MS2 coat protein [4]
1 | CGUAAGUGAGGAUAUCGUAGAGGAGACAUGAGGAUCACCCAUGUGUCAAGCGGUCCCGAAUGAGAAGGCACUGGUU [EX5 B.25] (Eterna round: R97, puzzle: Exclusion 5) | 21.5 nM | 20.3 nM | – | – | – | –
2 | UAUUAGCAAGUAAGAUCCCACAUGAGGAUCACCCAUGUGCUCGUCAUAUAACGUACUGUGAGGAAACUCACGGUACG [Sensor-V1 #84] (Eterna round: R97, puzzle: Sensor, turn-off variant 1) | 85 nM | 103 nM | – | – | – | –
3 | GGGCUCGGAGGAUAUACAAUCUCGGGCUGAAAGGCUCGGGUACAUGAGGAUCACCCAUGUAGAAGGUCGGGCUC [-30.2, -27.6 kcal A 24%, 4bis,4] (Eterna round: R97, puzzle: Exclusion 2) | 26 nM | 15.9 nM | – | – | – | –
4 | AUAGAGUCAGGAUAUUGCGCAGUGGACAUGAGGAUCACCCAUGUGAACUUCGUACCGGGCCAAGAAGGGACGGAAA [Onedra] (puzzle: Exclusion 5) | – | – | 96.6 nM | 21.5 nM | 31.1 nM | –
5 | CGGUGCUGAGGAUAUACAUGAGGAUCACCCAUGUGUUCCAGCUAGCGUACUGGCGGAUGUAGAAGGCGGUACUG [JL-ex3-3.40 Brourd mod] (puzzle: Exclusion 3) | – | – | 52.8 nM | 13.1 nM | 17.7 nM | –
6 | AGUAUGUCAGGAUAUCUCGGGUAGCCCACAACGACUACCGAAGAGAAGGGACAUGAGGAUCACCCAUGUACCAU [EX4 B.15] (Eterna round: R97, puzzle: Exclusion 4) | 29.9 nM | 34.3 nM | – | – | – | –
7 | GCAUUUGAGCAGGAUAUAGCCUGAACAUAAUGGUUAGAAGGGCUCACAUGAGGAUCACCCAUGUGGUGUCCUAA [Rateria] (puzzle: Exclusion 6) | – | – | – | 11.6 nM | – | –
8 | UGAUCACAUGAGGAUCACCCAUGUCAGGAUAUCGUCACUGGAGCUUCGGCUCCAGUGACGAGAAGGGACAUAAU [E1/3-A1] (Eterna round: R97, puzzle: Exclusion 1) | 77.4 nM | 141 nM | – | – | – | –
9 | GAUACACGUUCAGGAUAUCGCGCCCAAUUACACCUCUUCCGACGGACAUGAGGAUCACCCAUGUGCGAGAAGGGAACCAAAACU [Orquonbedi] (Eterna round: R96, puzzle: Exclusion NG 2) | 13.6 nM | 17.4 nM | – | – | – | 13.2 nM
10 | UUAUUAGCAGGAUAUAUCCAGGAUUACAUGAGGAUCACCCAUGUGGCCGCUUGAAAUUCUAUAGAAGGGCUUUAUU [Mod of ViennaUCT 36 - Jieux - Exclusion 5] (Eterna round: R97, puzzle: Exclusion 5) | 52.7 nM | 45.8 nM | – | – | – | –
11 | CAGUACUGAGGAUAUACAUGAGGAUCACCCAUGUGUGUGAGAUUUGGAUGAAAGUUAUGUAGAAGGCGGUGCUG [JR_Ex3_Sub037] (Eterna round: R97, puzzle: Exclusion 3) | 68.4 nM | 73.8 nM | – | – | – | –
12 | AAGAUGCGCGCAGGAUAUGGAGAGAAAGAAAGACCAGAAGGGCGGGUCACACAACAUGAGGAUCACCCAUGUGUGUGUUGCGAA [snuffleupagus] (Eterna round: R96, puzzle: Exclusion NG 1) | 9.29 nM | 12.2 nM | – | – | – | 9.54 nM
13 | GGAGAGUCAGGAUAUACAUGAGGAUCACCCAUGUUGGAAAGUGGAGGGACGGGAGUCCGUAGAAGGGACGAGAG [Identicality] (puzzle: Exclusion 3) | – | – | – | 27.7 nM | – | –
14 | GGGUGUCCAGUGAGGAUAUCCAGCGCUCAGGCGCAGGAGAAGGCACAUGAGGAUCACCCAUGUAGCUGAAGAAA [Geenra] (puzzle: Brourd's mod of Exclusion 4) | – | – | 116 nM | 30.9 nM | 41.7 nM | –
15 | AUCUUUGCUCGUCAAAUUUACAUGAGGAUCACCCAUGUCUACCUGAGUGCGUCGGGACUGUACGUCAGCCGGUGGAA [Eternabot (L2) Solution 15] (Eterna round: R97, puzzle: Sensor, turn-off variant 1) | 23.3 nM | 25 nM | – | – | – | –
16 | UCGAGGUCAGGAUAUACAUGAGGAUCACCCAUGUGGAAGUAAGGUAGGAGAAGAGUAGGUAGAAGGGACGAGAG [JR_Exclu3_Sub050] (puzzle: Exclusion 3) | – | – | – | 30.8 nM | – | –
17 | CUGAUGUUAGGAUAUCAGGCGCCCGCCACUAGCAAGGCGCAUGAGAAGGGACAUGAGGAUCACCCAUGUAGUAA [Xexeonza] (puzzle: Exclusion 4) | – | – | – | 27.7 nM | – | –
18 | UGAUCUUUUGUUAGGAUAUGCUGGGUUUUUUCUCAGCAGAAGGGACAUGAGGAUCACCCAUGUUCUCUCUUUUU [Magic-08] (puzzle: Brourd's mod of Exclusion 4) | – | – | – | 9.72 nM | – | –

Row | Sequence | apparent KD of MS2 coat protein (input ligand: FMN 200 uM) | apparent KD of MS2 coat protein (input ligand: none) | apparent KD of MS2 coat protein [1] | apparent KD of MS2 coat protein [2] | apparent KD of MS2 coat protein [3] | apparent KD of MS2 coat protein [4]
19 | GCAAAAUAUCAGGAUAUGACUUUUUGCGUUAAGUCAGAAGGGAUAACAUGAGGAUCACCCAUGUGAUAUAGUGU [JR_Ex6_Sub031] (Eterna round: R97, puzzle: Exclusion 6) | 261 nM | 177 nM | – | – | – | –
20 | CCCGGAUCAACUCCCGGGAACAACAUGAGGAUCACCCAUGUCUAGGAUAUCCACCAGUCAAUAAAGGAGAAGGAGACGGUGGUU [Raesessoqu] (Eterna round: R96, puzzle: Exclusion NG 3) | 32.5 nM | 30.5 nM | – | – | – | 23.3 nM
21 | GCUUGUGGGCAAGGAUAUCCUGCGCUGUUCUGGUUCGUGUCUGUCACAUGAGGAUCACCCAUGUGGGAGAAGGUGCCUUUGGUG [Design 64] (Eterna round: R96, puzzle: Exclusion NG 2) | 13.4 nM | 14.9 nM | – | – | – | 10.9 nM
22 | GUUUCACAUGAGGAUCACCCAUGUGAGGAUAUAAAUUUGUUAACCGUAGUUAAUAGAUUUAGAAGGCGCGUGAU [JR_Exc1_Sub001] (Eterna round: R97, puzzle: Exclusion 1) | 68.2 nM | 63.1 nM | – | – | – | –
23 | UUUAAUUUUUUUUUUUUACAAGCUUUUUGCUCGUCUUAUACAUGAGGAUCACCCAUGUGAAUGAGGGAUAAAUUAUC [JMF 39] (puzzle: Sensor v3, turn-off variant 2) | – | – | 13.5 nM | 14.3 nM | 11.9 nM | –
24 | UAUUAGCAAGCGAGAUCCCACAUGAGGAUCACCCAUGUGCUCGUGCAUCCAGAAUUACUGGGUGCUGCUCGUCUUAU [Winner reversed engineered 13] (Eterna round: R97, puzzle: Sensor, turn-off variant 1) | 15.2 nM | 14.8 nM | – | – | – | –
25 | UUUAAUUUUUUUUUUUUACAAGCUUUUUGCUCGUCUUAUACAUGAGGAUCACCCAUGUGAAUGGGAAAUGAAUUAUC [JMF 96] (puzzle: Sensor v3, turn-off variant 2) | – | – | 112 nM | 268 nM | 132 nM | –
26 | GUUUGCACGCUGCGGUCCUACAUGAGGAUCACCCAUGUGGUCUGGUGGCGUGGGUCGCCGGACUUGGCUCGUCUUGA [salish99_S_TOV1_R5_038] (Eterna round: R97, puzzle: Sensor, turn-off variant 1) | 17.2 nM | 16.9 nM | – | – | – | –
27 | GCCUUGGGAGUCAGGAUAUACAAUAAAAUAAUUAAGUAGAAGGGACAUGAGGAUCACCCAUGUACAUUACAUUG [alecazam30] (Eterna round: R97, puzzle: Brourd's mod of Exclusion 4) | 48 nM | 13.3 nM | – | – | – | –
28 | ACACAACAUGAGGAUCACCCAUGUCAGGAUAUGCAGAAGAAGAAGAAGAGAAGAGAGAGCAGAAGGGACAACAC [Ex 1 M3] (puzzle: Exclusion 1) | – | – | 41.7 nM | 30 nM | 33.5 nM | –
29 | UACAUGAGGAUCACCCAUGUUUUGUCGUGUAUGGUAUUUAUCUAGGAUAUCAAUUUAAUUAUUUAUGAGAAGGAGAAUAUUAAU [JMF's solution 17] (Eterna round: R96, puzzle: Exclusion NG 3) | – | – | – | – | – | 29.8 nM
30 | CCUUAGUCAGGAUAUUGAGGUAAAAGAAAAGAAAACGACAGCAAGAAGGGACAUGAGGAUCACCCAUGUAUAAA [Bequxeain] (puzzle: Exclusion 4) | – | – | 24.4 nM | 30.1 nM | 16.2 nM | –
31 | UGAUCUAGGCGAGGAUAUACAUGAGGAUCACCCAUGUAAACGUGACAUGGAAACAUGUCACGUGUGUAGAAGGCGCCUAGAUCU [MOD2 ENG2 3.54 by JL] (Eterna round: R96, puzzle: Exclusion NG 2) | 15.7 nM | 13.2 nM | – | – | – | 10.8 nM
32 | CUCGAGUGAGGAUAUAUACUUCCAUCAUUUGAGAGAGAAGUAUAGAAGGCACAUGAGGAUCACCCAUGUAUAAA [Rierreis] (puzzle: Exclusion 4) | – | – | – | 41.3 nM | – | –
33 | GGUCUGCGAGGAUAUACAUGAGGAUCACCCAUGUGCGAGAUACUAGUGAGGUCGAUUGGUAGAAGGCGCGGACG [JL-ex3-2.06 salish99 mod] (puzzle: Exclusion 3) | – | – | 182 nM | 86.4 nM | 88.8 nM | –
34 | UACUUCCGAGGAUAUACAUGAGGAUCACCCAUGUGCUUCAGCAUCGAAAGAUGCAUGGGUAGAAGGCGGUAGUU [LRO-Excl3-19] (puzzle: Exclusion 3) | – | – | – | 36.6 nM | – | –
35 | CCAGCGUAUGUAAGGAUAUGCUGGUCGAAAGAUCAGCAGAAGGUACAUGAGGAUCACCCAUGUGUAAUCGUUGG [Mod of JL 5 - Jieux - Brourd's mod of Exclusion 4] (Eterna round: R97, puzzle: Brourd's mod of Exclusion 4) | 52.7 nM | 18.9 nM | – | – | – | –
